This test addresses carcinoembryonic antigen (CEA) (UniProt P06731). As to the kind of experiment: cell-based or functional assay.
UniProt P06731, sequence (P06731 35-702 limits assumed): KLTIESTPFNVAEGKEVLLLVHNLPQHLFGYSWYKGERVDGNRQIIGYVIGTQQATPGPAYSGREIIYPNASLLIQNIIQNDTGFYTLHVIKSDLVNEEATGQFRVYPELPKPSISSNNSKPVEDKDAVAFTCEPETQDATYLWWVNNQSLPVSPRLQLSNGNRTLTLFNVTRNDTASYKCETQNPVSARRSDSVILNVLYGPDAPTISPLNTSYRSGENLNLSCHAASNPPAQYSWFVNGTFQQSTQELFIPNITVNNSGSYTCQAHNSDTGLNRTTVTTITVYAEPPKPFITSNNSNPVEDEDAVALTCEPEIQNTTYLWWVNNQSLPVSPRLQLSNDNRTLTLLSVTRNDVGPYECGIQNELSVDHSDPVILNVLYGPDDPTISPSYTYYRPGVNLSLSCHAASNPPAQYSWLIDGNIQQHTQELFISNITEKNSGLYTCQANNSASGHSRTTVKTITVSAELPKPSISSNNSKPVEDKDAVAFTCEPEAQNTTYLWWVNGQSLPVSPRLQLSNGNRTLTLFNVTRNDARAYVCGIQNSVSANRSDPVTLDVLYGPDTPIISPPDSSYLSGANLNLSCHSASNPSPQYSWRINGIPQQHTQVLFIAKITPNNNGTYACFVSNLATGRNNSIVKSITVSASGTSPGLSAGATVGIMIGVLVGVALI

Turning to “MFE23 CoStAR (MFE23.scFv fused to full length human CD28) (receptor)”, the IL-2 secretion by ELISA, T-cells mixed with LoVo-OKT3 cells, average of three donors (non-transduced cells 0.80 ng/ml) was 5 ng/mL.

The values are drawn from patent US20220160760A1.
